This passage reports Ki results from US20210032299A1 (Eli Lilly, published 2021).

T1: human glucose-dependent insulinotropic polypeptide (GIP) receptor (human, UniProt P48546 22-466)
T1 construct: whole, on cells; Assayed as crude membranes of stably transfected CHO cells; also called hGIPR; human GIP receptor
T1 sequence (looked up): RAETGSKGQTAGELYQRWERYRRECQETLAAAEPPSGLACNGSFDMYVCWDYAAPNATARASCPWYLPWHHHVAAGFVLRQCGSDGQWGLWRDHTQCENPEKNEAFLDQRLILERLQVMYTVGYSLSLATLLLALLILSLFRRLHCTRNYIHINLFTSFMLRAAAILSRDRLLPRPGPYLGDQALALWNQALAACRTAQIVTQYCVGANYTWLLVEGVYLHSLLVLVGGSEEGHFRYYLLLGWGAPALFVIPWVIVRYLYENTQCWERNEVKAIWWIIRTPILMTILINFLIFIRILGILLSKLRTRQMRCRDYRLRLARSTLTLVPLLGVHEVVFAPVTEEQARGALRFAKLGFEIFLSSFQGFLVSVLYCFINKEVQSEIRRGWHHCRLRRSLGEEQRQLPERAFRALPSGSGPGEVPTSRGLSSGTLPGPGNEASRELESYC

B1: Example 121 (peptide)
peptide: Y[Aib]EGT[αMePhe(2-F)]ISDYSILLDKIHQ[Aib]DFVE[4Pal]K([AEEA-AEEA-γGlu-C20 diacid])LEQGPSSGAPPPS-NH2
modifications: N-terminus assumed
SMILES: CC[C@H](C)[C@H](NC(=O)[C@H](CO)NC(=O)[C@H](Cc1ccc(O)cc1)NC(=O)[C@H](CC(=O)O)NC(=O)[C@H](CO)NC(=O)[C@@H](NC(=O)[C@](C)(Cc1ccccc1F)NC(=O)[C@@H](NC(=O)CNC(=O)[C@H](CCC(=O)O)NC(=O)C(C)(C)NC(=O)[C@@H](N)Cc1ccc(O)cc1)[C@@H](C)O)[C@@H](C)CC)C(=O)N[C@@H](CC(C)C)C(=O)N[C@@H](CC(C)C)C(=O)N[C@@H](CC(=O)O)C(=O)N[C@@H](CCCCN)C(=O)N[C@H](C(=O)N[C@@H](Cc1c[nH]cn1)C(=O)N[C@@H](CCC(N)=O)C(=O)NC(C)(C)C(=O)N[C@@H](CC(=O)O)C(=O)N[C@@H](Cc1ccccc1)C(=O)N[C@H](C(=O)N[C@@H](CCC(=O)O)C(=O)N[C@@H](Cc1ccncc1)C(=O)N[C@@H](CCCCNC(=O)COCCOCCNC(=O)COCCOCCNC(=O)CC[C@H](NC(=O)CCCCCCCCCCCCCCCCCCC(=O)O)C(=O)O)C(=O)N[C@@H](CC(C)C)C(=O)N[C@@H](CCC(=O)O)C(=O)N[C@@H](CCC(N)=O)C(=O)NCC(=O)N1CCC[C@H]1C(=O)N[C@@H](CO)C(=O)N[C@@H](CO)C(=O)NCC(=O)N[C@@H](C)C(=O)N1CCC[C@H]1C(=O)N1CCC[C@H]1C(=O)N1CCC[C@H]1C(=O)N[C@@H](CO)C(N)=O)C(C)C)[C@@H](C)CC
B2: Example 3 (peptide)
peptide: Y[Aib]EGTFISDYSI[αMeL]LDKK([AEEA-AEEA-γGlu-C20 diacid])HQ[Aib]DFVE[4Pal]LLEAGPSSGAPPPS-NH2
modifications: N-terminus assumed
SMILES: CC[C@H](C)[C@H](NC(=O)[C@H](Cc1ccccc1)NC(=O)[C@@H](NC(=O)CNC(=O)[C@H](CCC(=O)O)NC(=O)C(C)(C)NC(=O)[C@@H](N)Cc1ccc(O)cc1)[C@@H](C)O)C(=O)N[C@@H](CO)C(=O)N[C@@H](CC(=O)O)C(=O)N[C@@H](Cc1ccc(O)cc1)C(=O)N[C@@H](CO)C(=O)N[C@H](C(=O)N[C@@](C)(CC(C)C)C(=O)N[C@@H](CC(C)C)C(=O)N[C@@H](CC(=O)O)C(=O)N[C@@H](CCCCN)C(=O)N[C@@H](CCCCNC(=O)COCCOCCNC(=O)COCCOCCNC(=O)CC[C@H](NC(=O)CCCCCCCCCCCCCCCCCCC(=O)O)C(=O)O)C(=O)N[C@@H](Cc1c[nH]cn1)C(=O)N[C@@H](CCC(N)=O)C(=O)NC(C)(C)C(=O)N[C@@H](CC(=O)O)C(=O)N[C@@H](Cc1ccccc1)C(=O)N[C@H](C(=O)N[C@@H](CCC(=O)O)C(=O)N[C@@H](Cc1ccncc1)C(=O)N[C@@H](CC(C)C)C(=O)N[C@@H](CC(C)C)C(=O)N[C@@H](CCC(=O)O)C(=O)N[C@@H](C)C(=O)NCC(=O)N1CCC[C@H]1C(=O)N[C@@H](CO)C(=O)N[C@@H](CO)C(=O)NCC(=O)N[C@@H](C)C(=O)N1CCC[C@H]1C(=O)N1CCC[C@H]1C(=O)N1CCC[C@H]1C(=O)N[C@@H](CO)C(N)=O)C(C)C)[C@@H](C)CC
B3: Example 1 (peptide)
peptide: YXEGTFISDYSILLDKKAQXDFVNWLLAQGPSSGAPPPS
modifications: D-Ala2; K17((2-[2-(2-Amino-ethoxy)-ethoxy]-acetyl)2-(γ-Glu)-CO-(CH2)18-CO2H); Aib20; C-terminal amide
B4: Example 2 (peptide)
peptide: B3 peptide
modifications: D-Ala2; K17((2-[2-(2-Amino-ethoxy)-ethoxy]-acetyl)2-(γ-Glu)-CO-(CH2)16-CO2H); Aib20; C-terminal amide
B5: Example 29 (peptide)
peptide: B3 peptide with D21E, N24E, Q29G
modifications: D-Ala2; K17((2-[2-(2-Amino-ethoxy)-ethoxy]-acetyl)2-(γ-Glu)-CO-(CH2)16-CO2H); Aib20; C-terminal amide
B6: Example 19 (peptide)
peptide: B3 peptide with Q29G
modifications: D-Ala2; K17((2-[2-(2-Amino-ethoxy)-ethoxy]-acetyl)2-(γ-Glu)-CO-(CH2)16-CO2H); Aib20; C-terminal amide
B7: Example 20 (peptide)
peptide: B3 peptide with D21E
modifications: D-Ala2; K17((2-[2-(2-Amino-ethoxy)-ethoxy]-acetyl)2-(γ-Glu)-CO-(CH2)16-CO2H); Aib20; C-terminal amide
B8: Example 16 (peptide)
peptide: B3 peptide with N24E
modifications: D-Ala2; K17((2-[2-(2-Amino-ethoxy)-ethoxy]-acetyl)2-(γ-Glu)-CO-(CH2)16-CO2H); Aib20; C-terminal amide
B9: Example 28 (peptide)
peptide: B3 peptide with D21E, A28E, Q29G
modifications: D-Ala2; K17((2-[2-(2-Amino-ethoxy)-ethoxy]-acetyl)2-(γ-Glu)-CO-(CH2)16-CO2H); Aib20; C-terminal amide
B10: Example 27 (peptide)
peptide: B3 peptide with D21E, N24Q, Q29G
modifications: D-Ala2; K17((2-[2-(2-Amino-ethoxy)-ethoxy]-acetyl)2-(γ-Glu)-CO-(CH2)16-CO2H); Aib20; C-terminal amide
B11: Example 17 (peptide)
peptide: B3 peptide with A28E
modifications: D-Ala2; K17((2-[2-(2-Amino-ethoxy)-ethoxy]-acetyl)2-(γ-Glu)-CO-(CH2)16-CO2H); Aib20; C-terminal amide
B12: Example 122 (peptide)
peptide: Y[Aib]EGTFISDYSI[αMeL]LD[Orn]IHQ[Aib]EFVE[4Pal]K([AEEA-AEEA-γGlu-C20 diacid])LEAGPSSGAPPPS-NH2
modifications: N-terminus assumed
SMILES: CC[C@H](C)[C@H](NC(=O)[C@H](CCCN)NC(=O)[C@H](CC(=O)O)NC(=O)[C@H](CC(C)C)NC(=O)[C@](C)(CC(C)C)NC(=O)[C@@H](NC(=O)[C@H](CO)NC(=O)[C@H](Cc1ccc(O)cc1)NC(=O)[C@H](CC(=O)O)NC(=O)[C@H](CO)NC(=O)[C@@H](NC(=O)[C@H](Cc1ccccc1)NC(=O)[C@@H](NC(=O)CNC(=O)[C@H](CCC(=O)O)NC(=O)C(C)(C)NC(=O)[C@@H](N)Cc1ccc(O)cc1)[C@@H](C)O)[C@@H](C)CC)[C@@H](C)CC)C(=O)N[C@@H](Cc1c[nH]cn1)C(=O)N[C@@H](CCC(N)=O)C(=O)NC(C)(C)C(=O)N[C@@H](CCC(=O)O)C(=O)N[C@@H](Cc1ccccc1)C(=O)N[C@H](C(=O)N[C@@H](CCC(=O)O)C(=O)N[C@@H](Cc1ccncc1)C(=O)N[C@@H](CCCCNC(=O)COCCOCCNC(=O)COCCOCCNC(=O)CC[C@H](NC(=O)CCCCCCCCCCCCCCCCCCC(=O)O)C(=O)O)C(=O)N[C@@H](CC(C)C)C(=O)N[C@@H](CCC(=O)O)C(=O)N[C@@H](C)C(=O)NCC(=O)N1CCC[C@H]1C(=O)N[C@@H](CO)C(=O)N[C@@H](CO)C(=O)NCC(=O)N[C@@H](C)C(=O)N1CCC[C@H]1C(=O)N1CCC[C@H]1C(=O)N1CCC[C@H]1C(=O)N[C@@H](CO)C(N)=O)C(C)C

Where a chain is given by its changes, count along the chain named. Starred links: 1 amine or outer side, 2 acyl side, 3 side chain; linkers in the order of their positions; H or OH if unused. Non-standard residues stand in square brackets, D forms with d. Groups on a side chain read outwards from the residue. No end group written: not given here. *: point of attachment. C20 diacid = O=C(O)CCCCCCCCCCCCCCCCCCC(=O)*; αMePhe(2-F) = C[C@](N)(Cc1ccccc1F)C(=O)O; γGlu = O=C(O)[C@H](CCC(=O)[*:2])N[*:1]; 4Pal = N[C@@H](Cc1ccncc1)C(=O)O; αMeL = CC(C)C[C@](C)(N)C(=O)O; Orn = NCCC[C@H](N)C(=O)O; AEEA = NCCOCCOCC(=O)O; Aib = CC(C)(N)C(=O)O

The first assay deals with T2, human glucagon receptor (human, UniProt P47871 26-477).
T2 construct: whole, on cells; Assayed as crude membranes of stably transfected HEK293 cells; also called hGcgR; GcgR
T2 sequence (P47871 26-477): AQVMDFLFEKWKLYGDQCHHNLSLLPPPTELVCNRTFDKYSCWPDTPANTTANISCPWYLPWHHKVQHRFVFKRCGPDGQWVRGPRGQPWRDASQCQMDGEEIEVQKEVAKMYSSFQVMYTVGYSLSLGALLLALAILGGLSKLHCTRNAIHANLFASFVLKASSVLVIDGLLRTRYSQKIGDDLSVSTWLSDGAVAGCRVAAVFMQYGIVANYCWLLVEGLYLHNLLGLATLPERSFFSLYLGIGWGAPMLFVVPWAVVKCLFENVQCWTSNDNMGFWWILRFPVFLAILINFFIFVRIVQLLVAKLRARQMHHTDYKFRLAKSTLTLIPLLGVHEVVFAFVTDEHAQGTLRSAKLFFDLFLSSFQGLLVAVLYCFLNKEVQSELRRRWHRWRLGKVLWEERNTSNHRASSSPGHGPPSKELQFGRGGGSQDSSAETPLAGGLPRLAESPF
As to the kind of experiment: SPA, displacement of [125I]-Gcg from hGcgR membranes, 0.1% bacitracin. As to the method: The binding buffer contains 25 mM 4-(2-hydroxyethyl)-1-piperazineethanesulfonic acid (HEPES), pH 7.4, 2.5 mM CaCl₂), 1 mM MgCl₂, 0.1% (w/v) bacitracin (Research Products), 0.003% (w/v) Polyoxyethylenesorbitan monolaurate (TWEEN®-20), and Roche Complete™ Protease Inhibitors without EDTA. […] Plates are sealed and mixed on a plate shaker (setting 6) for 1 minute and read with a PerkinElmer Trilux MicroBeta® scintillation counter after 12 hours of incubation/settling time at room temperature.
Data are analyzed using four-parameter (curve maximum, curve minimum, […], Hill slope) nonlinear regression routines (Genedata Screener, version 12.0.4, Genedata AG, Basal, Switzerland). […] Values for Kᵢ are reported as the geometric mean, with error expressed as the standard error of the mean (SEM) and n is equal to the number of independent replicates (determined in assays performed on different days).
Take B1: the Ki turned out to be 94.9 nM.
Take B2: the Ki came out at 338 nM.
With B3, the Ki turned out to be 228 nM.
Still for that read-out and setting: the figure for B4 is 379 nM; for B5 it is 133 nM.
Turning to B6, the Ki was determined as 335 nM.
Still for that read-out and setting: with B7 the figure was 216 nM; with B8, 549 nM; with B9, 86.8 nM.
With B10, the Ki was found to be 401 nM.
On the same count and under the same terms, with B11 the figure was 274 nM.
Still for that read-out and setting: with B12 the figure was 957 nM.

The next assay deals with T1, human glucose-dependent insulinotropic …. As to the kind of experiment: SPA, displacement of [125I]-GIP from hGIPR membranes, 0.1% bacitracin.
Consider B1, for which the Ki turned out to be 0.103 nM.
For B2, the affinity corresponds to a Ki of 0.0525 nM.
On the same count and under the same terms, with B3 the figure was 0.0667 nM.
The molecule B4 gave a Ki of 0.0373 nM.
The molecule B5 gave a Ki of 0.0569 nM.
For B6, the affinity corresponds to a Ki of 0.0469 nM.
Same read-out and setting: with B7 the figure was 0.0477 nM.
Same read-out and setting: with B8 the figure was 0.0438 nM.
As for B9, the Ki was found to be 0.0732 nM.
On the same count and under the same terms, with B10 the figure was 0.0354 nM; with B11, 0.0571 nM.
Same read-out and setting: the figure for B12 is 0.0311 nM.

The next assay concerns the target T3, human GLP-1 receptor (human, UniProt P43220 24-463).
T3 construct: whole, on cells; Assayed as crude membranes of stably transfected HEK293 cells; also called hGLP1R; hGLP-1R
As to the kind of experiment: SPA, displacement of [125I]-GLP-1 from hGLP-1R membranes, 0.1% bacitracin. The method in brief: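 Binding buffer: 25 mM HEPES pH 7.4, 2.5 mM CaCl₂, 1 mM MgCl₂, 0.1% bacitracin, 0.003% Tween-20, protease inhibitors without EDTA. Four-parameter nonlinear regression; Kᵢ given as geometric mean ± SEM, n = independent replicates run on different days.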
Molecule B2 had a Ki of 381 nM.
The same measure, in the same setting: the figure for B3 is 57.8 nM; for B4 it is 77.9 nM; for B5 it is 22.7 nM.
As for B6, the Ki came to 15.2 nM.
With B7, the Ki amounted to 79.8 nM.
Molecule B8 registered a Ki of 99.2 nM.
The same measure, in the same setting: the figure for B9 is 6.46 nM; for B10 it is 23.2 nM.
The same measure, in the same setting: with B11 the figure was 106 nM.
